Assay [1] has as its target T1, recombinant VEGFR-1/Fc chimera (UniProt P17948 27-758).
T1 construct: Vascular endothelial growth factor receptor-1 (VEGFR-1), extracellular region, fused with the Fc region of human immunoglobulins; Bought chimera; source: bought: R&D Systems
In words: ELISA; 96-well Maxisorp plates coated with 10 ug/ml sVEGFR-1; binding buffer PBS with 3% BSA, 1 mM CaCl2, 0.5 mM MgCl2; 2 ug/ml VEGFR-1/Fc, 4 ug/ml VEGFR-2/Fc or 1 ug/ml NRP-1/Fc added; detection with alkaline phosphatase-conjugated anti-human Fc antibody, absorbance at 405 nm; selected wells pre-incubated with 5 ug/ml D16F7 mAb for 30 min at room temperature. The note with it: both partners purified. In general terms: An ELISA detects its analyte on a solid surface through an enzyme-linked reagent.

In assay [2] the target is T2, recombinant VEGFR-2/Fc chimera (UniProt P35968 20-764).
T2 construct: Vascular endothelial growth factor receptor-2 (VEGFR-2), extracellular region, fused with the Fc region of human immunoglobulins; Bought chimera; source: bought: R&D Systems
Described as above. Particulars: both partners purified.

T2 sequence (P35968 20-764, stated change not applied): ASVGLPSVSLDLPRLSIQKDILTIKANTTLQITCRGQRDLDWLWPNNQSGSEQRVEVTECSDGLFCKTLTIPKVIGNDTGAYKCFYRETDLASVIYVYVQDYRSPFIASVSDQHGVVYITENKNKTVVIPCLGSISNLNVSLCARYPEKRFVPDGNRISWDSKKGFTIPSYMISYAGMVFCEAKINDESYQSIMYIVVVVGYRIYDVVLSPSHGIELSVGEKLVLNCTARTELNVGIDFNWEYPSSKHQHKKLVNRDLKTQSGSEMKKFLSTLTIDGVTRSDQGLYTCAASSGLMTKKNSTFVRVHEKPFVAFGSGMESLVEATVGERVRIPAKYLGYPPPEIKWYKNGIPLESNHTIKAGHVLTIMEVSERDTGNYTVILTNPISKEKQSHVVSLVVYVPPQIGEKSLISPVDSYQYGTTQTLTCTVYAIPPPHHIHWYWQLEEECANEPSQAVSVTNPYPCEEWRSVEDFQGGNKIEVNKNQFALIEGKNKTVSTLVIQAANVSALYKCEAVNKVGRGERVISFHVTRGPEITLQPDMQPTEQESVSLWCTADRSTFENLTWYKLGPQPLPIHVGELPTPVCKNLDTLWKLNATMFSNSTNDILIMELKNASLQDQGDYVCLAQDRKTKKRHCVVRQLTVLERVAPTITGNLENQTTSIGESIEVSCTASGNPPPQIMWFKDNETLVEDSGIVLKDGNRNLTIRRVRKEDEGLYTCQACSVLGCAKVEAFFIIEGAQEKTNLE

B1: native human soluble VEGFR-1 (sVEGFR-1) (receptor, UniProt P17948-2 27-687, looked up)
chain: SKLKDPELSLKGTQHIMQAGQTLHLQCRGEAAHKWSLPEMVSKESERLSITKSACGRNGKQFCSTLTLNTAQANHTGFYSCKYLAVPTSKKKETESAIYIFISDTGRPFVEMYSEIPEIIHMTEGRELVIPCRVTSPNITVTLKKFPLDTLIPDGKRIIWDSRKGFIISNATYKEIGLLTCEATVNGHLYKTNYLTHRQTNTIIDVQISTPRPVKLLRGHTLVLNCTATTPLNTRVQMTWSYPDEKNKRASVRRRIDQSNSHANIFYSVLTIDKMQNKDKGLYTCRVRSGPSFKSVNTSVHIYDKAFITVKHRKQQVLETVAGKRSYRLSMKVKAFPSPEVVWLKDGLPATEKSARYLTRGYSLIIKDVTEEDAGNYTILLSIKQSNVFKNLTATLIVNVKPQIYEKAVSSFPDPALYPLGSRQILTCTAYGIPQPTIKWFWHPCNHNHSEARCDFCSNNEESFILDADSNMGNRIESITQRMAIIEGKNKMASTLVVADSRISGIYICIASNKVGTVGRNISFYITDVPNGFHVNLEKMPTEGEDLKLSCTVNKFLYRDVTWILLRTVNNRTMHYSISKQKMAITKEHSITLNLTIMNVSLQDSGTYACRARNVYTGEEILQKKEITIRGEHCNKKAVFSRISKFKSTRNDCTTQSNVKH
notes: The methods call it 'Native human sVEGFR-1'; also called recombinant sVEGFR-1; source: bought: ReliaTech
On to B1, for which the binding result in assay [1] and in assay [2] was “binds” each time.
